Results from patent US20100047237A1.

What was measured:
[1] = biological target: ALys amyloid fibrils extracted from human amyloidotic tissue (human) (UniProt P61626); experiment: 125I-SAP binding to fibrils; ALys fibrils at 0.002 A280-A320 units/ml; mean of 2 replicates
[2] = biological target: ALys amyloid fibrils extracted from human amyloidotic tissue (human) (UniProt P61626); experiment: 125I-SAP binding to fibrils; ALys fibrils at 0.2 A280-A320 units/ml; mean of 2 replicates
[3] = biological target: ALys amyloid fibrils extracted from human amyloidotic tissue (human) (UniProt P61626); experiment: 125I-SAP binding to fibrils; ALys fibrils at 0.05 A280-A320 units/ml; mean of 2 replicates
[4] = biological target: ALys amyloid fibrils extracted from human amyloidotic tissue (human) (UniProt P61626); experiment: 125I-SAP binding to fibrils; ALys fibrils at 0.02 A280-A320 units/ml; mean of 2 replicates

human serum amyloid P component (SAP), 125I-labelled (from UniProt P02743 20-223)
% ^125I-SAP counts bound [1]: 7%
% ^125I-SAP counts bound [2]: 79%
% ^125I-SAP counts bound [3]: 72%
% ^125I-SAP counts bound [4]: 45%
